The data set concerns the molecule itself. Kind of data set: AUC.

The results in this text go back to publication doi:10.1101/2023.07.31.551325 (bioRxiv, 2023).

B1: recombinant full-length Plasmodium vivax Sub1 (PvS1FL) (complex)
chain 1: GDILPNEGKKEKDDVHKIISELRFLQKVETILESSNMSVSDVEADANAYNPDRDAPKEELQKLQDQQETPSKQPNNLRNSPQKRAEKKESPGKNKKSLRLIVSENHATSPSFFEESLLQEDVVSFIQSKGKLSNLKNLKSMIIDLNSDMTDEELAEYISLLERKGALIESDKLVGAD
chain 2: DVSLASVKDAVRRGESSVNWGKLRSTMLEVPSGESPPSHAASSGSPFDDDDDLLSEAALHREEAHLAGSKTTKGYKFNDEYRNLQWGLDLARLDETQDLINANRVSVTKICVIDSGIDYNHPDLRNNIDVNVKELHGRKGVDDDSNGVVDDVYGANFVNNSGDPMDDNYHGTHVSGIISAVGNNGIGIVGVDGHSKLVICKALDQHKLGRLGDMFKCIDYCISRQAHMINGSFSFDEYSNIFNASVEHLRSLGILFFVSASNCAHDKLSKPDIAKCDLAVNHRYPPILSKTHNNVIAVANLKRDLDESYSLSVNSFYSNIYCQLAAPGTNIYSTTPMNNYRKLNGTSMASPHVAAIASIVRSINPNLTYLQIVEILRNAIVKLPSLTERVSWGGYVDILRAVNLAIDSKAAPYIKSHSWFRWKQGSRR
By stoichiometry N is commonly meant a count of units in the complex or per binding partner. Regarding B1, the “stoichiometry N” value is 2.
